# The Immune Epitope Database (IEDB)
# Key:
# HLA-B*15:01 = assay: IEDB peptide-MHC binding, purified MHC/competitive/fluorescence; ≥ and ≤ were set here for values at or beyond the usual limits of such assays
# HLA-A*01:01 = assay: as above
# HLA-A*11:01 = assay: as above
# HLA-A*03:01 = assay: as above
# HLA-B*08:01 [1] = assay: IEDB peptide-MHC binding, purified MHC/competitive/fluorescence; filed as Kd, often an IC50 or EC50 that approximates it; ≥ and ≤ were set here for values at or beyond the usual limits of such assays; details: source organism: Influenza A virus (A/Osaka/930/88(H1N1))
# HLA-A*02:19 = assay: as above; details: source organism: Desulfatibacillum alkenivorans AK-01
# HLA-A*02:11 = assay: as above; details: source organism: Desulfatibacillum alkenivorans AK-01
# HLA-A*02:06 = assay: as above; details: source organism: Desulfatibacillum alkenivorans AK-01
# HLA-A*02:03 = assay: as above; details: source organism: Desulfatibacillum alkenivorans AK-01
# HLA-A*02:01 [2] = assay: as above; details: source organism: Desulfatibacillum alkenivorans AK-01
# HLA-A*02:12 = assay: as above; details: source organism: Desulfatibacillum alkenivorans AK-01
# HLA-A*02:16 = assay: as above; details: source organism: Desulfatibacillum alkenivorans AK-01
# HLA-A*69:01 = assay: as above; details: source organism: Desulfatibacillum alkenivorans AK-01
# HLA-B*08:01 [3] = assay: IEDB peptide-MHC binding, purified MHC/competitive/fluorescence; ≥ and ≤ were set here for values at or beyond the usual limits of such assays; details: source organism: Zaire ebolavirus
# HLA-A*02:01 [4] = assay: as above; details: source organism: Zaire ebolavirus
# HLA-A*24:02 = assay: as above; details: source organism: Zaire ebolavirus
# HLA-B*07:02 = assay: as above
# [5] = source organism: Zaire ebolavirus
# [6] = source organism: Sudan ebolavirus
sequence,measurement,setting,value
GQHIEGRQT,IC50,HLA-B*15:01; [5],≥ 148 µM
ISDRATRKY,IC50,HLA-A*01:01; [6],1.89 µM
same,IC50,HLA-A*11:01; [6],18.8 µM
same,IC50,HLA-B*15:01; [6],57.6 µM
same,IC50,HLA-A*03:01; [6],38.6 µM
KLERRMENL,Kd,HLA-B*08:01 [1],≥ 20 µM
KLGKAGYVV,Kd,HLA-A*02:19,0.117 µM
same,Kd,HLA-A*02:11,0.0013 µM
same,Kd,HLA-A*02:06,0.00192 µM
same,Kd,HLA-A*02:03,0.00229 µM
same,Kd,HLA-A*02:01 [2],0.384 µM
same,Kd,HLA-A*02:12,0.0235 µM
same,Kd,HLA-A*02:16,0.00177 µM
same,Kd,HLA-A*69:01,≥ 20 µM
LFQRTFSIP,IC50,HLA-B*08:01 [3],≥ 270 µM
same,IC50,HLA-A*02:01 [4],≥ 72.9 µM
same,IC50,HLA-A*24:02,1.04 µM
MVIFRLMRT,IC50,HLA-B*08:01 [3],≥ 77.6 µM
same,IC50,HLA-A*11:01; [5],≥ 177 µM
same,IC50,HLA-A*02:01 [4],0.478 µM
same,IC50,HLA-A*03:01; [5],≥ 96.6 µM
RSRRQTNTK,IC50,HLA-A*11:01; [6],1.47 µM
same,IC50,HLA-A*03:01; [6],2.27 µM
same,IC50,HLA-B*07:02; [6],8.84 µM
STSPRMLTP,IC50,HLA-A*11:01; [5],44.1 µM
same,IC50,HLA-B*07:02; [5],≥ 168 µM
same,IC50,HLA-A*24:02,69.9 µM
VIFRLMRTN,IC50,HLA-A*11:01; [5],≥ 90.6 µM
same,IC50,HLA-B*15:01; [5],≥ 175 µM
same,IC50,HLA-A*02:01 [4],42.7 µM
same,IC50,HLA-A*03:01; [5],7.47 µM
same,IC50,HLA-A*24:02,≥ 150 µM
VTLDGQQFY,IC50,HLA-A*01:01; [5],3.88 µM
same,IC50,HLA-A*11:01; [5],4.92 µM
same,IC50,HLA-B*15:01; [5],53.6 µM
same,IC50,HLA-A*02:01 [4],≥ 226 µM
same,IC50,HLA-A*03:01; [5],≥ 105 µM
same,IC50,HLA-A*24:02,≥ 192 µM
WPVMNHKNK,IC50,HLA-A*11:01; [5],≥ 185 µM
same,IC50,HLA-A*03:01; [5],≥ 180 µM
same,IC50,HLA-B*07:02; [5],53.1 µM
